The values below are quoted from earlier work in article PMC5368065.

One series addresses MLL1 (Homo sapiens) (UniProt Q03164).
In series [1] the target is MLL1 MBM1-MBM2 (Homo sapiens) (UniProt Q03164).

By Kd is commonly meant a measure of binding affinity in units of concentration. Consider Menin (from UniProt O00255), for which the Kd (with MLL1 (Homo sapiens); in series [1]) was 10 nM each time.
